Source: paper PMC6073757
“And” between values parts separate entries of the source, which are not always exact repeats. Equal values may be shown once.

Experiments:
[1] = molecular target: LrtA protein of Synechocystis sp. PCC 6803 (Synechocystis sp. PCC 6803); assay: SEC; Superose 12 10/300 GL, 50 mM Tris pH 8.0, 0.7 M NaCl, 97 uM LrtA (protomer units) loaded in 100 uL, 25 °C; calibrated with blue dextran, albumin, RNase A
[2] = molecular target: LrtA protein of Synechocystis sp. PCC 6803 (Synechocystis sp. PCC 6803); assay: cross-linking; glutaraldehyde 1% final, 97 uM LrtA (protomer units), 50 mM Tris pH 8.0, 0.5 M NaCl, room temperature; aliquots on 12% SDS-PAGE

stoichiometry N [1]: 6 and 12
stoichiometry N [2]: 2
Substance: LrtA protein of Synechocystis sp. PCC 6803 (natural protein)
